Source: the supplement of paper PMC9112550, “Optimization of the antimicrobial peptide Bac7 by deep mutational scanning” (BMC Biology, 2022)

Tested on: Escherichia coli TOP10
Experiment: shrunken log2 fold change of peptide-encoding DNA abundance (4.5 h post-induction vs induction); higher = less antimicrobial activity (less host growth inhibition)
Settings: time post-induction: 4.5 h; library: site-saturation at positions 5, 18, 19, 20
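Also: peptides expressed intracellularly from a pBAD plasmid library in pooled LB shake-flask culture, induced with 0.3% L-arabinose, DNA abundance read by NGS, three biological replicates, DESeq2 with apeglm shrinkage.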

Sequence	shrunken log2 fold change
RRIRHRPPRLPRPRPRPVCFPRP	-0.0341
RRIRCRPPRLPRPRPRPTVWPRP	0.553
RRIRFRPPRLPRPRPRPRRAPRP	0.678
RRIRYRPPRLPRPRPRPWCFPRP	-0.369
RRIRFRPPRLPRPRPRPNVWPRP	0.0725
RRIRQRPPRLPRPRPRPADMPRP	-0.0927
RRIRSRPPRLPRPRPRPFEYPRP	-0.115
RRIRFRPPRLPRPRPRPCTPPRP	-0.158
RRIRWRPPRLPRPRPRPSKVPRP	-0.04
RRIRPRPPRLPRPRPRPWSSPRP	-0.977
RRIRGRPPRLPRPRPRPAPRPRP	1.85
RRIRMRPPRLPRPRPRPCPVPRP	0.0171
RRIRFRPPRLPRPRPRPYYRPRP	0.0478
RRIRKRPPRLPRPRPRPPWFPRP	0.309
RRIRCRPPRLPRPRPRPDAYPRP	-0.177
RRIRERPPRLPRPRPRPLCYPRP	-0.824
RRIRDRPPRLPRPRPRPCAHPRP	0.07
RRIRLRPPRLPRPRPRPEIEPRP	-0.0912
RRIRCRPPRLPRPRPRPTFSPRP	-0.187
RRIRIRPPRLPRPRPRPWLAPRP	-0.12
RRIRIRPPRLPRPRPRPYAGPRP	-0.417

Sequence	shrunken log2 fold change
RRIRDRPPRLPRPRPRPKHRPRP	0.114
RRIRNRPPRLPRPRPRPYPTPRP	-0.074
RRIRGRPPRLPRPRPRPPDNPRP	0.795
RRIRCRPPRLPRPRPRPQPDPRP	0.102
RRIRFRPPRLPRPRPRPGTGPRP	-0.124
RRIRWRPPRLPRPRPRPIEFPRP	-0.0119
RRIRKRPPRLPRPRPRPLMLPRP	0.007
RRIRERPPRLPRPRPRPEMSPRP	0.0528
RRIRVRPPRLPRPRPRPQSRPRP	0.0616
RRIRLRPPRLPRPRPRPNLRPRP	-0.0377
RRIRSRPPRLPRPRPRPFATPRP	0.461
RRIRCRPPRLPRPRPRPMTHPRP	-0.377
RRIRCRPPRLPRPRPRPINMPRP	-1.09
RRIRLRPPRLPRPRPRPDWKPRP	0.0269
RRIRNRPPRLPRPRPRPYFIPRP	-0.645
RRIRCRPPRLPRPRPRPCTHPRP	-0.48
RRIRKRPPRLPRPRPRPRKPPRP	1.65
RRIRGRPPRLPRPRPRPPVVPRP	1.7
RRIRRRPPRLPRPRPRPTPVPRP	0.969
RRIRPRPPRLPRPRPRPQCAPRP	0.167
RRIRQRPPRLPRPRPRPAGWPRP	0.808

Sequence	shrunken log2 fold change
RRIRHRPPRLPRPRPRPRCPPRP	0.169
RRIRWRPPRLPRPRPRPKMGPRP	0.0381
RRIRTRPPRLPRPRPRPWNQPRP	-0.543
RRIRIRPPRLPRPRPRPIDRPRP	0.203
RRIRERPPRLPRPRPRPPYSPRP	-0.102
RRIRIRPPRLPRPRPRPSSPPRP	-0.746
RRIRDRPPRLPRPRPRPRITPRP	-0.138
RRIRQRPPRLPRPRPRPTDFPRP	-0.122
RRIRDRPPRLPRPRPRPLDGPRP	0.0131
RRIRDRPPRLPRPRPRPNVLPRP	-0.45
RRIRVRPPRLPRPRPRPQRVPRP	0.0942
RRIRNRPPRLPRPRPRPQWMPRP	-0.0995
RRIRTRPPRLPRPRPRPQYYPRP	-0.266
RRIRYRPPRLPRPRPRPQHQPRP	-0.304
RRIRYRPPRLPRPRPRPKDYPRP	-0.787
RRIRMRPPRLPRPRPRPYEKPRP	-0.111
RRIRGRPPRLPRPRPRPYLEPRP	0.296
RRIRTRPPRLPRPRPRPIQMPRP	-0.286
RRIRKRPPRLPRPRPRPYVAPRP	0.111
RRIRCRPPRLPRPRPRPLHTPRP	-0.0899
